Data reported in patent US20170015742A1 (published 2017).

How the values were obtained:
[1] = target: recombinant human VEGF165 (human, UniProt P15692 207-395); assay: cell-based or functional assay
[2] = target: recombinant human PDGF-BB (human, UniProt P01127 82-190); assay: cell-based or functional assay
Sequence of recombinant human PDGF-BB (P01127 82-190 limits assumed): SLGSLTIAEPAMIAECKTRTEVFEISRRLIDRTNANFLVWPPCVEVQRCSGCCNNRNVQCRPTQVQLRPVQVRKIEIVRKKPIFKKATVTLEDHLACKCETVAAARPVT

Sequence of recombinant human VEGF165 (P15692 other isoform, or with tags, fused parts or gaps limits assumed): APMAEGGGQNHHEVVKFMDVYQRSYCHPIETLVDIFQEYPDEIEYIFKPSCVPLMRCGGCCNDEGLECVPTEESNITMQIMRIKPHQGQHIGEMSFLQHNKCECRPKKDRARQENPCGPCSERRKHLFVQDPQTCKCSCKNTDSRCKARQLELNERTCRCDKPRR

B1: 9E8.4_GS_1E3.4 (bispecific antibody, human IgG1, kappa, L234A L235A)
heavy: EVTLRESGPALVKPTQTLTLTCTFSGFSLSTYGMGVGWIRQPPGKALEWLANIWWDDDKYYNPSLKNRLTISKDTSKNQVVLTMTNMDPVDTATYYCARIESIGTTYSFDYWGQGTMVTVSSGGGGSGGGGSEIQLVQSGSELKKPGASVKVSCKASGYPFTNSGMYWVKQAPGQGLEYMGWINTEAGKPTYADDFKGRFVFSLDTSVSTAYLQISSLKAEDTAVYFCARWGYISDNSYGWFDYWGQGTLVTVSSASTKGPSVFPLAPSSKSTSGGTAALGCLVKDYFPEPVTVSWNSGALTSGVHTFPAVLQSSGLYSLSSVVTVPSSSLGTQTYICNVNHKPSNTKVDKKVEPKSCDKTHTCPPCPAPEAAGGPSVFLFPPKPKDTLMISRTPEVTCVVVDVSHEDPEVKFNWYVDGVEVHNAKTKPREEQYNSTYRVVSVLTVLHQDWLNGKEYKCKVSNKALPAPIEKTISKAKGQPREPQVYTLPPSREEMTKNQVSLTCLVKGFYPSDIAVEWESNGQPENNYKTTPPVLDSDGSFFLYSKLTVDKSRWQQGNVFSCSVMHEALHNAYTQKSLSLSPGK
light: EFVLTQSPGTLSLSPGERATLSCERSSGDIGDSYVSWYQQKPGQAPRLVIYADDQRPSGIPDRFSGSGSGTDFTLTISRLEPEDFAVYYCQSYDINIDIVFGGGTKVEIKGGSGGGGSGGATQLTQSPSSLSASVGDRVTISCRASEGVYSYMHWYQQKPGKQPKLLIYKASNLASGVPSRFSGSGSGTDFTLTISSLQPEDFATYFCHQNWNDPLTFGQGTKLEIKRTVAAPSVFIFPPSDEQLKSGTASVVCLLNNFYPREAKVQWKVDNALQSGNSQESVTEQDSKDSTYSLSSTLTLSKADYEKHKVYACEVTHQGLSSPVTKSFNRGEC
Potency IC50 (nM) HMVEC-d hVEGF165 [1]: 0.897 nM
Potency IC50 (nM) NIH-3T3 hPDGF-BB [2]: 0.131 nM

B2: 1B10.1_GS_9E8.4 (bispecific antibody, human IgG1, kappa, L234A L235A)
heavy: EVQLVESGGGLVQPGGSLRLSCAASGFSFSKYDMAWFRQAPGKGLEWVASITTSGVGTYYRDSVKGRFTVSRDNAKSTLYLQMNSLRAEDTAVYYCARGYGAMDAWGQGTTVTVSSGGGGSGGGGSEVTLRESGPALVKPTQTLTLTCTFSGFSLSTYGMGVGWIRQPPGKALEWLANIWWDDDKYYNPSLKNRLTISKDTSKNQVVLTMTNMDPVDTATYYCARIESIGTTYSFDYWGQGTMVTVSSASTKGPSVFPLAPSSKSTSGGTAALGCLVKDYFPEPVTVSWNSGALTSGVHTFPAVLQSSGLYSLSSVVTVPSSSLGTQTYICNVNHKPSNTKVDKKVEPKSCDKTHTCPPCPAPEAAGGPSVFLFPPKPKDTLMISRTPEVTCVVVDVSHEDPEVKFNWYVDGVEVHNAKTKPREEQYNSTYRVVSVLTVLHQDWLNGKEYKCKVSNKALPAPIEKTISKAKGQPREPQVYTLPPSREEMTKNQVSLTCLVKGFYPSDIAVEWESNGQPENNYKTTPPVLDSDGSFFLYSKLTVDKSRWQQGNVFSCSVMHEALHNAYTQKSLSLSPGK
light: DIQMTQSPSSLSASVGDRVTITCKASQDIDDYLSWYQQKPGKSPKLVIYAATRLADGVPSRFSGSGSGTDYTLTISSLQPEDFATYYCLQSSSTPWTFGGGTKVEIKGGSGGGGSGGEFVLTQSPGTLSLSPGERATLSCERSSGDIGDSYVSWYQQKPGQAPRLVIYADDQRPSGIPDRFSGSGSGTDFTLTISRLEPEDFAVYYCQSYDINIDIVFGGGTKVEIKRTVAAPSVFIFPPSDEQLKSGTASVVCLLNNFYPREAKVQWKVDNALQSGNSQESVTEQDSKDSTYSLSSTLTLSKADYEKHKVYACEVTHQGLSSPVTKSFNRGEC
Potency IC50 (nM) HMVEC-d hVEGF165 [1]: 0.127 nM
Potency IC50 (nM) NIH-3T3 hPDGF-BB [2]: 0.678 nM

B3: 9E10.1_GS_9E8.4 (bispecific antibody, human IgG1, kappa, L234A L235A)
heavy: EIQLVQSGSELKKPGASVKVSCKASGYTFTNYGMYWVKQAPGQGLEYMGWIDTETGRPTYADDFKGRFVFSLDTSVSTAYLQISSLKAEDTAVYFCARWSGDTTGIRGPWFAYWGQGTLVTVSSGGGGSGGGGSEVTLRESGPALVKPTQTLTLTCTFSGFSLSTYGMGVGWIRQPPGKALEWLANIWWDDDKYYNPSLKNRLTISKDTSKNQVVLTMTNMDPVDTATYYCARIESIGTTYSFDYWGQGTMVTVSSASTKGPSVFPLAPSSKSTSGGTAALGCLVKDYFPEPVTVSWNSGALTSGVHTFPAVLQSSGLYSLSSVVTVPSSSLGTQTYICNVNHKPSNTKVDKKVEPKSCDKTHTCPPCPAPEAAGGPSVFLFPPKPKDTLMISRTPEVTCVVVDVSHEDPEVKFNWYVDGVEVHNAKTKPREEQYNSTYRVVSVLTVLHQDWLNGKEYKCKVSNKALPAPIEKTISKAKGQPREPQVYTLPPSREEMTKNQVSLTCLVKGFYPSDIAVEWESNGQPENNYKTTPPVLDSDGSFFLYSKLTVDKSRWQQGNVFSCSVMHEALHNAYTQKSLSLSPGK
light: DIRMTQSPSSLSASVGDRVTIECLASEDIYSDLAWYQQKPGKSPKLLIYNANGLQNGVPSRFSGSGSGTDYSLTISSLQPEDVATYFCQQYNYFPGTFGQGTKLEIKGGSGGGGSGGEFVLTQSPGTLSLSPGERATLSCERSSGDIGDSYVSWYQQKPGQAPRLVIYADDQRPSGIPDRFSGSGSGTDFTLTISRLEPEDFAVYYCQSYDINIDIVFGGGTKVEIKRTVAAPSVFIFPPSDEQLKSGTASVVCLLNNFYPREAKVQWKVDNALQSGNSQESVTEQDSKDSTYSLSSTLTLSKADYEKHKVYACEVTHQGLSSPVTKSFNRGEC
Potency IC50 (nM) HMVEC-d hVEGF165 [1]: 0.059 nM
Potency IC50 (nM) NIH-3T3 hPDGF-BB [2]: 1.91 nM

B4: 9E10.6_GS_9E8.4 (bispecific antibody, human IgG1, kappa, L234A L235A)
heavy: EVQLVQSGAEVKKPGSSVKVSCKASGYTFTNYGMYWVRQAPGQGLEWMGWIDTETGRPTYADDFKGRFTFTADKSTSTAYMELSSLRSEDTAVYYCARWSGDTTGIRGPWFAYWGQGTLVTVSSGGGGSGGGGSEVTLRESGPALVKPTQTLTLTCTFSGFSLSTYGMGVGWIRQPPGKALEWLANIWWDDDKYYNPSLKNRLTISKDTSKNQVVLTMTNMDPVDTATYYCARIESIGTTYSFDYWGQGTMVTVSSASTKGPSVFPLAPSSKSTSGGTAALGCLVKDYFPEPVTVSWNSGALTSGVHTFPAVLQSSGLYSLSSVVTVPSSSLGTQTYICNVNHKPSNTKVDKKVEPKSCDKTHTCPPCPAPEAAGGPSVFLFPPKPKDTLMISRTPEVTCVVVDVSHEDPEVKFNWYVDGVEVHNAKTKPREEQYNSTYRVVSVLTVLHQDWLNGKEYKCKVSNKALPAPIEKTISKAKGQPREPQVYTLPPSREEMTKNQVSLTCLVKGFYPSDIAVEWESNGQPENNYKTTPPVLDSDGSFFLYSKLTVDKSRWQQGNVFSCSVMHEALHNAYTQKSLSLSPGK
light: DIRMTQSPSSLSASVGDRVTITCLASEDIYSDLAWYQQKPGKSPKLLIYNANGLQNGVPSRFSGSGSGTDYTLTISSLQPEDVATYFCQQYNYFPGTFGQGTKLEIKGGSGGGGSGGEFVLTQSPGTLSLSPGERATLSCERSSGDIGDSYVSWYQQKPGQAPRLVIYADDQRPSGIPDRFSGSGSGTDFTLTISRLEPEDFAVYYCQSYDINIDIVFGGGTKVEIKRTVAAPSVFIFPPSDEQLKSGTASVVCLLNNFYPREAKVQWKVDNALQSGNSQESVTEQDSKDSTYSLSSTLTLSKADYEKHKVYACEVTHQGLSSPVTKSFNRGEC
Potency IC50 (nM) HMVEC-d hVEGF165 [1]: 0.049 nM
Potency IC50 (nM) NIH-3T3 hPDGF-BB [2]: 1.14 nM

B5: 9E10.6_GS_CL-33675 (bispecific antibody, human IgG1, kappa, L234A L235A)
heavy: EVQLVQSGAEVKKPGSSVKVSCKASGYTFTNYGMYWVRQAPGQGLEWMGWIDTETGRPTYADDFKGRFTFTADKSTSTAYMELSSLRSEDTAVYYCARWSGDTTGIRGPWFAYWGQGTLVTVSSGGGGSGGGGSEVTLRESGPALVKPTQTLTLTCTFSGFSLSTYGMGVGWIRQPPGKALEWLANIWWDDDKYYNPSLKNRLTISKDTSKNQVVLTMTNMDPVDTATYYCARIESSGPKYSFDYWGQGTMVTVSSASTKGPSVFPLAPSSKSTSGGTAALGCLVKDYFPEPVTVSWNSGALTSGVHTFPAVLQSSGLYSLSSVVTVPSSSLGTQTYICNVNHKPSNTKVDKKVEPKSCDKTHTCPPCPAPEAAGGPSVFLFPPKPKDTLMISRTPEVTCVVVDVSHEDPEVKFNWYVDGVEVHNAKTKPREEQYNSTYRVVSVLTVLHQDWLNGKEYKCKVSNKALPAPIEKTISKAKGQPREPQVYTLPPSREEMTKNQVSLTCLVKGFYPSDIAVEWESNGQPENNYKTTPPVLDSDGSFFLYSKLTVDKSRWQQGNVFSCSVMHEALHNAYTQKSLSLSPGK
light: DIRMTQSPSSLSASVGDRVTITCLASEDIYSDLAWYQQKPGKSPKLLIYNANGLQNGVPSRFSGSGSGTDYTLTISSLQPEDVATYFCQQYNYFPGTFGQGTKLEIKGGSGGGGSGGEIVLTQSPGTLSLSPGERATLSCRASSGSIWYSFVSWYQQKPGQAPRLLIYADDQRASGIPDRFSGSGSGTDFTLTISRLEPEDFAVYYCQSYGINIDVVFGGGTKVEIKRTVAAPSVFIFPPSDEQLKSGTASVVCLLNNFYPREAKVQWKVDNALQSGNSQESVTEQDSKDSTYSLSSTLTLSKADYEKHKVYACEVTHQGLSSPVTKSFNRGEC
Potency IC50 (nM) HMVEC-d hVEGF165 [1]: 0.05 nM
Potency IC50 (nM) NIH-3T3 hPDGF-BB [2]: 0.037 nM

B6: 4G8.5_GS_9E8.4 (bispecific antibody, human IgG1, kappa, L234A L235A)
heavy: EIQLVQSGSELKKPGASVKVSCKASGYTFTNYGMYWVRQAPGQGLEYMGWINTETGKPTYADDFKGRFVFSLDTSVSTAYLQISSLKAEDTAVYFCARTNYYYRSYIFYFDYWGQGTMVTVSSGGGGSGGGGSEVTLRESGPALVKPTQTLTLTCTFSGFSLSTYGMGVGWIRQPPGKALEWLANIWWDDDKYYNPSLKNRLTISKDTSKNQVVLTMTNMDPVDTATYYCARIESIGTTYSFDYWGQGTMVTVSSASTKGPSVFPLAPSSKSTSGGTAALGCLVKDYFPEPVTVSWNSGALTSGVHTFPAVLQSSGLYSLSSVVTVPSSSLGTQTYICNVNHKPSNTKVDKKVEPKSCDKTHTCPPCPAPEAAGGPSVFLFPPKPKDTLMISRTPEVTCVVVDVSHEDPEVKFNWYVDGVEVHNAKTKPREEQYNSTYRVVSVLTVLHQDWLNGKEYKCKVSNKALPAPIEKTISKAKGQPREPQVYTLPPSREEMTKNQVSLTCLVKGFYPSDIAVEWESNGQPENNYKTTPPVLDSDGSFFLYSKLTVDKSRWQQGNVFSCSVMHEALHNAYTQKSLSLSPGK
light: ATQLTQSPSLSASVGDRVTITCRASESVSTHMHWYQQKPGKQPKLLIYGASNLESGVPSRFSGSGSGTDFTLTISSLQPEDFATYFCQQSWNDPFTFGQGTKLEIKGGSGGGGSGGEFVLTQSPGTLSLSPGERATLSCERSSGDIGDSYVSWYQQKPGQAPRLVIYADDQRPSGIPDRFSGSGSGTDFTLTISRLEPEDFAVYYCQSYDINIDIVFGGGTKVEIKRTVAAPSVFIFPPSDEQLKSGTASVVCLLNNFYPREAKVQWKVDNALQSGNSQESVTEQDSKDSTYSLSSTLTLSKADYEKHKVYACEVTHQGLSSPVTKSFNRGEC
Potency IC50 (nM) HMVEC-d hVEGF165 [1]: 0.069 nM
Potency IC50 (nM) NIH-3T3 hPDGF-BB [2]: 4.83 nM
